Data on 1 molecule can be found in US20080201790A1, “Method and product for regulating cell responsiveness to external signals” (priority 1993, published 2008).

Assay [1] has as its system Swiss 3T3 cells. The assay can be described thus: UV-induced apoptosis in Swiss 3T3 clones with IPTG-inducible MEKKCOOH
It is filed as cell-based. Conditions: two hours after ultraviolet irradiation. Here is the method: FIG. 16. Induction of MEKKCOOH expression by IPTG in Swiss 3T3 cells increases the number of condensed cells and stimulates c-Myc transactivation. In panel A, cells were incubated in the presence or absence of 5 mM IPTG for forty eight hours. Cells were stained with acrodine orange and condensed cells quantitated per 1000 cells counted per coverslip. In panel B Swiss 3T3 cells with inducible MEKKCOOH were incubated in the presence or absence of IPTG. The indicated cells were then exposed to UV-C irradiation and then fixed and stained with propidium iodide. The percentage of apoptotic cells was enumerated.
Because stable expression of MEKKCOOH appeared to inhibit clonal expansion of Swiss 3T3 cells under G418 drug selection, clones were isolated having inducible expression of the kinase. The Lac Switch expression system (Stratagene) was used to control the expression of MEKKCOOH. Several independent clones were isolated and their properties analyzed in the presence or absence of IPTG-induced expression of MEKKCOOH. The parental LacR+ clone expressing only the Lac repressor was used as the control. […] This is probably due to a basal level of MEKKCOOH expression in uninduced cells. […] This maybe related to selection of cells during the cloning procedure that adapted to a low, constitutive level of MEKKCOOH expression. […]

Assay [2] has as its system p38/Hog1. Kind of assay: p38/Hog1 activity in Swiss 3T3 clones with inducible MEKKCOOH
It is filed as cell-based. Conditions: 17 hours IPTG induction.

B1: MEKKCOOH: a truncated activated form of MEKK1 including the entire kinase domain (protein)
chain: MAMSASQDALPIVPQLQVENGEDIIIIQQDTPETLPGHTKAKQPYREDAEWLKGQQIGLGAFSSCYQAQDVGTGTLMAVKQVTYVRNTSSEQEEVVEALREEIRMMGHLNHPNIIRMLGATCEKSNYNLFIEWMAGGSVAHLLSKYGAFKESVVINYTEQLLRGLSYLHENQIIHRDVKGANLLIDSTGQRLRIADFGAAARLASKGTGAGEFQGQLLGTIAFMAPEVLRGQQYGRSCDVWSVGCAIIEMACAKPPWNAEKHSNHLALIFKIASATTAPSIPSHLSPGLRDVAVRCLELQPQDRPPSRELLKHPVFRTTW
Turning to B1, the “cells morphologically highly condensed, appearing apoptotic” value in assay [1] is “greater than 30%”. Also, the p38/Hog1 activity result in assay [2] is recorded as “did not activate either ERK or p38/Hog1 activity”.
